Source: article PMC6482197, “Inhibition of HtrA2 alleviated dextran sulfate sodium (DSS)-induced colitis by preventing necroptosis of intestinal epithelial cells” (Cell Death & Disease, 2019)

Target: the molecule itself
Assay: not stated; MLKL trimer formation in T/S-treated L929 cells, with or without UCF-101 (Supplementary Fig. 5)

B1: MLKL (natural protein, mouse (endogenous in L929), UniProt Q9D2Y4 1-472, looked up)
chain: MDKLGQIIKLGQLIYEQCEKMKYCRKQCQRLGNRVHGLLQPLQRLQAQGKKNLPDDITAALGRFDEVLKEANQQIEKFSKKSHIWKFVSVGNDKILFHEVNEKLRDVWEELLLLLQVYHWNTVSDVSQPASWQQEDRQDAEEDGNENMKVILMQLQISVEEINKTLKQCSLKPTQEIPQDLQIKEIPKEHLGPPWTKLKTSKMSTIYRGEYHRSPVTIKVFNNPQAESVGIVRFTFNDEIKTMKKFDSPNILRIFGICIDQTVKPPEFSIVMEYCELGTLRELLDREKDLTMSVRSLLVLRAARGLYRLHHSETLHRNISSSSFLVAGGYQVKLAGFELSKTQNSISRTAKSTKAERSSSTIYVSPERLKNPFCLYDIKAEIYSFGIVLWEIATGKIPFEGCDSKKIRELVAEDKKQEPVGQDCPELLREIINECRAHEPSQRPSVDGRSLSGRERILERLSAVEESTDKKV
notes: MLKL, endogenous in the mouse fibroblast line L929; The trimer is seen in the execution phase of necroptosis; also called mixed lineage kinase domain like pseudokinase; MLKL trimer; source: endogenous, L929 cells treated with TNF-α plus Smac mimetic (T/S)
With B1 the “stoichiometry N” value was 3.
